This test deals with His-tagged mouse Wnt3a (mouse) (UniProt P27467). The test is described as follows: cell-based or functional assay.
Chain of UniProt P27467 (P27467 19-352): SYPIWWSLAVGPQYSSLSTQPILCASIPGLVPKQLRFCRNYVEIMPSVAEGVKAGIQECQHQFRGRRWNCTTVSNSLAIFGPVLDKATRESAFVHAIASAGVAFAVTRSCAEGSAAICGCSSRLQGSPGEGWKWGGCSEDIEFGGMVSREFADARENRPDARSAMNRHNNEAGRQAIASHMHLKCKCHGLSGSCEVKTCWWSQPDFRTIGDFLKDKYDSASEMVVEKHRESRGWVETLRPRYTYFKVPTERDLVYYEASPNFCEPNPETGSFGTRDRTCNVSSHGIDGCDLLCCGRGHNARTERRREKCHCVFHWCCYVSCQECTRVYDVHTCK

Take “human FZC18 (from UniProt P39060 216-450)”: the decrease in Wnt3a-induced CRT (beta-catenin-TCF-regulated transcription), TCF-responsive reporter in HEK293T and Huh-7 cells is more than 80%. Substance “human V3Nter (from UniProt P39060 24-497)” came in with a decrease in Wnt3a-induced CRT (beta-catenin-TCF-regulated transcription), TCF-responsive reporter in HEK293T and Huh-7 cells of more than 80%.

The record behind these values is patent publication US20100316616A1.
